Assay results taken from patent publication US20240350596.

Test system: ghrelin (acylated; [3H]-ghrelin labeled on the octanoic acid moiety of the acylated Ser3)

Substance | Relative catalytic efficiency for ghrelin (Relative to CocH3) (fold relative to CocH3)
BChE mutant A199S/F227A/P285Q/S287G/A328W/Y332G | 3
BChE mutant F398I | 2
CocH3 (A199S/F227A/S287G/A328W/Y332G mutant of human BChE) | 1
BChE mutant T284S/P285I/V288I | 3
BChE-M02 (A199S/F227A/P285A/S287G/A328W/Y332G mutant of human BChE) | 3
BChE mutant T284S/P285I/V288I/F398I | 3
BChE mutant A199S/S287G/A328W/Y332G | 2
BChE mutant A199S/F227A/P285S/S287G/A328W/Y332G | 2
Wild-type human BChE | 1.5
BChE mutant T284S/P285I/F398I | 3
